Results as given in paper PMC3002392.

Target: Na+,K+-ATPase α-subunit (endogenous, MDCK cells) (dog (endogenous in MDCK)) (UniProt P50997)
Test: co-IP

In the case of “AS160 (endogenous, MDCK cells) (natural protein)”, the fold increase of co-precipitated AS160 with 40 uM Compound C against vehicle is reported as 7 fold.
